In the FLAb antibody collection (doi:10.1101/2023.12.08.570889) one finds Kd data, which are given here for 19 molecules.

One assay has as its target FXI. In words: Kd (SPR).
A further assay deals with IL36R. Description: Kd (SPR).

B1: unnamed (protein)
chain 1: EVQLLESGGGLVQPGGSLRLSCAASGFTFSQYGMDWVRQAPGKGLEWVSGIGPSGGSTVYADSVKGRFTISRDNSKNTLYLQMNSLRAEDTAVYYCTRDGPAWYYAFDVWGQGTTVTVSS
chain 2: DIQMTQSPSSLSASVGDRVTITCQASQDISNYLNWYQQKPGKAPKLLIYDASNLETGVPSRFSGSGSGTDFTFTISSLQPEDIATYYCQQADSFPVTFGGGTKVEIK
B1 came in with a Kd with FXI of 51.7 nM. This counts as double-digit nanomolar.

B2: unnamed (protein)
chain 1: EVQLLESGGGLVQPGGSLRLSCAASGFTFSQYGMDWVRQAPGKGLEWVSGIGPSGGSTVYADSVKGRFTISRDNSKNTLYLQMNSLRAEDTAVYYCARGGPAWYYAFDVWGQGTTVTVSS
chain 2: DIQMTQSPSSLSASVGDRVTITCQASQDISNYLNWYQQKPGKAPKLLIYDASNLETGVPSRFSGSGSGTDFTFTISSLQPEDIATYYCQQADSFPVTFGGGTKVEIK
In the assay with FXI, B2 returned a Kd of 204 nM.

B3: unnamed (protein)
chain 1: EVQLLESGGGLVQPGGSLRLSCAASGFTFSQYGMDWVRQAPGKGLEWVSGIGPSGGSTVYADSVKGRFTISRDNSKNTLYLQMNSLRAEDTAVYYCTRGGPAYYYAFDYWGQGTTVTVSS
chain 2: DIQMTQSPSSLSASVGDRVTITCQASQDISNYLNWYQQKPGKAPKLLIYDASNLETGVPSRFSGSGSGTDFTFTISSLQPEDIATYYCQQADSFPVTFGGGTKVEIK
In the assay with FXI, B3 showed a Kd of 306 nM.

B4: unnamed (protein)
chain 1: EVQLLESGGGLVQPGGSLRLSCAASGFTFSQYGMDWVRQAPGKGLEWVSGIGPSGGSTVYADSVKGRFTISRDNSKNTLYLQMNSLRAEDTAVYYCTRDGPDYYYAFDYWGQGTTVTVSS
chain 2: DIQMTQSPSSLSASVGDRVTITCQASQDISNYLNWYQQKPGKAPKLLIYDASNLETGVPSRFSGSGSGTDFTFTISSLQPEDIATYYCQQADSFPVTFGGGTKVEIK
Molecule B4 yielded a Kd with FXI of 573 nM.

B5: unnamed (protein)
chain 1: EVQLLESGGGLVQPGGSLRLSCAASGFTFSQYGMDWVRQAPGKGLEWVSGIGPSGGSTVYADSVKGRFTISRDNSKNTLYLQMNSLRAEDTAVYYCTRDGPYYYYAFDYWGQGTTVTVSS
chain 2: DIQMTQSPSSLSASVGDRVTITCQASQDISNYLNWYQQKPGKAPKLLIYDASNLETGVPSRFSGSGSGTDFTFTISSLQPEDIATYYCQQADSFPVTFGGGTKVEIK
Consider B5, for which the Kd with FXI stood at 68 nM. This Kd is about 8.4-fold lower than that of the molecule before.

B6: unnamed (protein)
chain 1: EVQLLESGGGLVQPGGSLRLSCAASGFTFSQYGMDWVRQAPGKGLEWVSGIGPSGGSTVYADSVKGRFTISRDNSKNTLYLQMNSLRAEDTAVYYCTRGGPWYYYAFDVWGQGTTVTVSS
chain 2: DIQMTQSPSSLSASVGDRVTITCQASQDISNYLNWYQQKPGKAPKLLIYDASNLETGVPSRFSGSGSGTDFTFTISSLQPEDIATYYCQQADSFPVTFGGGTKVEIK
For the molecule B6, the Kd with FXI worked out at 284 nM.

B7: unnamed (protein)
chain 1: EVQLLESGGGLVQPGGSLRLSCAASGFTFSQYGMDWVRQAPGKGLEWVSGIGPSGGSTVYADSVKGRFTISRDNSKNTLYLQMNSLRAEDTAVYYCTRGGPAWYYAFDVWGQGTTVTVSS
chain 2: DIQMTQSPSSLSASVGDRVTITCQASQDISNYLNWYQQKPGKAPKLLIYDASNLETGVPSRFSGSGSGTDFTFTISSLQPEDIATYYCQQADSFPVTFGGGTKVEIK
In the assay with FXI, B7 gave a Kd of 241 nM.

B8: unnamed (protein)
chain 1: EVQLLESGGGLVQPGGSLRLSCAASGFTFSQYGMDWVRQAPGKGLEWVSGIGPSGGSTVYADSVKGRFTISRDNSKNTLYLQMNSLRAEDTAVYYCTRGGPAYYYGFDYWGQGTTVTVSS
chain 2: DIQMTQSPSSLSASVGDRVTITCQASQDISNYLNWYQQKPGKAPKLLIYDASNLETGVPSRFSGSGSGTDFTFTISSLQPEDIATYYCQQADSFPVTFGGGTKVEIK
Molecule B8 registered a Kd with FXI of 148 nM.

B9: unnamed (protein)
chain 1: EVQLLESGGGLVQPGGSLRLSCAASGFTFSQYGMDWVRQAPGKGLEWVSGIGPSGGSTVYADSVKGRFTISRDNSKNTLYLQMNSLRAEDTAVYYCARGGPAYYYAFDIWGQGTTVTVSS
chain 2: DIQMTQSPSSLSASVGDRVTITCQASQDISNYLNWYQQKPGKAPKLLIYDASNLETGVPSRFSGSGSGTDFTFTISSLQPEDIATYYCQQADSFPVTFGGGTKVEIK
B9 registered a Kd in the assay with FXI of 430 nM. Against the preceding molecule, the Kd is about 2.9-fold higher.

B10: unnamed (protein)
chain 1: EVQLLESGGGLVQPGGSLRLSCAASGFTFSQYGMDWVRQAPGKGLEWVSGIGPSGGSTVYADSVKGRFTISRDNSKNTLYLQMNSLRAEDTAVYYCARGGSAYYYAFDVWGQGTTVTVSS
chain 2: DIQMTQSPSSLSASVGDRVTITCQASQDISNYLNWYQQKPGKAPKLLIYDASNLETGVPSRFSGSGSGTDFTFTISSLQPEDIATYYCQQADSFPVTFGGGTKVEIK
In the assay with FXI, B10 came in with a Kd of 822 nM. Against the preceding molecule, the Kd is about 1.9-fold higher.

B11: unnamed (protein)
chain 1: EVQLLESGGGLVQPGGSLRLSCAASGFTFSQYGMDWVRQAPGKGLEWVSGIGPSGGSTVYADSVKGRFTISRDNSKNTLYLQMNSLRAEDTAVYYCTRGGTAYYYAFDVWGQGTTVTVSS
chain 2: DIQMTQSPSSLSASVGDRVTITCQASQDISNYLNWYQQKPGKAPKLLIYDASNLETGVPSRFSGSGSGTDFTFTISSLQPEDIATYYCQQADSFPVTFGGGTKVEIK
In turn, B11 displayed a dissociation constant Kd in the assay with FXI of 1410 nM.

B12: unnamed (protein)
chain 1: EVQLLESGGGLVQPGGSLRLSCAASGFTFSQYGMDWVRQAPGKGLEWVSGIGPSGGSTVYADSVKGRFTISRDNSKNTLYLQMNSLRAEDTAVYYCTRDGRSYYYAFDVWGQGTTVTVSS
chain 2: DIQMTQSPSSLSASVGDRVTITCQASQDISNYLNWYQQKPGKAPKLLIYDASNLETGVPSRFSGSGSGTDFTFTISSLQPEDIATYYCQQADSFPVTFGGGTKVEIK
The molecule B12 gave a Kd with FXI of 750 nM.

B13: unnamed (protein)
chain 1: EVQLLESGGGLVQPGGSLRLSCAASGFTFSQYGMDWVRQAPGKGLEWVSGIGPSGGSTVYADSVKGRFTISRDNSKNTLYLQMNSLRAEDTAVYYCTRDGDAYYYAFDVWGQGTTVTVSS
chain 2: DIQMTQSPSSLSASVGDRVTITCQASQDISNYLNWYQQKPGKAPKLLIYDASNLETGVPSRFSGSGSGTDFTFTISSLQPEDIATYYCQQADSFPVTFGGGTKVEIK
B13 had a Kd in the assay with FXI of 625 nM.

B14: unnamed (protein)
chain 1: EVQLLESGGGLVQPGGSLRLSCAASGFTFSQYGMDWVRQAPGKGLEWVSGIGPSGGSTVYADSVKGRFTISRDNSKNTLYLQMNSLRAEDTAVYYCARDGPAYYYAFDVWGQGTTVTVSS
chain 2: DIQMTQSPSSLSASVGDRVTITCQASQDISNYLNWYQQKPGKAPKLLIYDASNLETGVPSRFSGSGSGTDFTFTISSLQPEDIATYYCQQADSFPVTFGGGTKVEIK
In the assay with FXI, B14 registered a Kd of 84 nM.

B15: unnamed (protein)
chain 1: EVQLLESGGGLVQPGGSLRLSCAASGFTFSQYGMDWVRQAPGKGLEWVSGIGPSGGSTVYADSVKGRFTISRDNSKNTLYLQMNSLRAEDTAVYYCTRDGGAYYYAFDVWGQGTTVTVSS
chain 2: DIQMTQSPSSLSASVGDRVTITCQASQDISNYLNWYQQKPGKAPKLLIYDASNLETGVPSRFSGSGSGTDFTFTISSLQPEDIATYYCQQADSFPVTFGGGTKVEIK
Regarding B15, in the assay with FXI, the Kd worked out at 135 nM.

B16: unnamed (protein)
chain 1: EVQLLESGGGLVQPGGSLRLSCAASGFTFSQYGMDWVRQAPGKGLEWVSGIGPSGGSTVYADSVKGRFTISRDNSKNTLYLQMNSLRAEDTAVYYCARDGPSWYYAFDVWGQGTTVTVSS
chain 2: DIQMTQSPSSLSASVGDRVTITCQASQDISNYLNWYQQKPGKAPKLLIYDASNLETGVPSRFSGSGSGTDFTFTISSLQPEDIATYYCQQADSFPVTFGGGTKVEIK
Take B16: the Kd with FXI was found to be 59.9 nM.

B17: unnamed (protein)
chain 1: QVQLVQSGAEVKKPGASVKVSCKASGYSFTSSWIHWVKQAPGQGLEWMGEINPGNVRTNYNENFRNKVTMTVDTSISTAYMELSRLRSDDTAVYYCTVVFYGEPYFPYWGQGTLVTVSS
chain 2: QIVLTQSPGTLSLSPGERATMTCTASSSVSSSYFHWYQQKPGQAPRLWIYRTSRLASGVPDRFSGSGSGTDFTLTISRLEPEDAATYYCHQFHRSPLTFGAGTKLEIK
Molecule B17 gave a Kd with IL36R of 0.964 nM.

B18: unnamed (protein)
chain 1: QVQLVQSGAEVKKPGASVKVSCKASGYSFTSSWIHWVKQAPGQGLEWMGEINPGNVRTNYNENFRNKVTMTVDTSISTAYMELSRLRSDDTAVYYCTRVQYGEPYFDYWGQGTLVTVSS
chain 2: QIVLTQSPGTLSLSPGERATMTCTASSSVSSSYFHWYQQKPGQAPRLWIYRTSRLASGVPDRFSGSGSGTDFTLTISRLEPEDAATYYCHQFHRSPLTFGAGTKLEIK
Regarding B18, in the assay with IL36R, the Kd came to 0.617 nM.

B19: unnamed (protein)
chain 1: QVQLVQSGAEVKKPGASVKVSCKASGYSFTSSWIHWVKQAPGQGLEWMGEINPGNVRTNYNENFRNKVTMTVDTSISTAYMELSRLRSDDTAVYYCTRSRYGEPWFDYWGQGTLVTVSS
chain 2: QIVLTQSPGTLSLSPGERATMTCTASSSVSSSYFHWYQQKPGQAPRLWIYRTSRLASGVPDRFSGSGSGTDFTLTISRLEPEDAATYYCHQFHRSPLTFGAGTKLEIK
The molecule B19 yielded a Kd in the assay with IL36R of 24.5 nM.
